This data set deals with MexT-(His)6 (Pseudomonas poae PMA22). Nature of the data set: EMSA. The conditions noted are these: 10 mM MgCl2, 5.4-134.5 ng MexT, 1 nM probe, EMSA: 20 mM Tris-HCl pH 8, 150 mM KCl, 10 mM MgCl2, 10% glycerol, 2 mM beta-mercaptoethanol, 50 ug/mL BSA, 9 uL, 20 min room temperature, 5% PAGE in 0.5x TBE. For orientation: A gel shift assay detects complexes by their altered migration in electrophoresis.

Data on two substances can be found in paper PMC11432991.

Pa promoter probe registered a binding signal (scale: fold of Pi affinity) of 0.33. Turning to Pi promoter probe, the binding signal (fold higher affinity than Pa probe) came out at 3.
